Where two headings read alike, the source gives them in different places.
What was measured:
[1] = target: Substance P (FAM-SP) (Homo sapiens), P20366
[2] = target: Substance P (FAM-SP) (Homo sapiens), P20366; remark: listed apart in the source

Chain of Substance P (FAM-SP) (Homo sapiens), P20366 (P20366 whole entry, looked up): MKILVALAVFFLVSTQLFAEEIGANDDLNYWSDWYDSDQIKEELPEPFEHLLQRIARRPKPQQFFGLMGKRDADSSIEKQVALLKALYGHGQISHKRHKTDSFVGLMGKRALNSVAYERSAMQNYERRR

B1: Neurokinin 1 receptor (NK1R), P25103 (protein)
chain: MDNVLPVDSDLSPNISTNTSEPNQFVQPAWQIVLWAAAYTVIVVTSVVGNVVVMWIILAHKRMRTVTNYFLVNLAFAEASMAAFNTVVNFTYAVHNEWYYGLFYCKFHNFFPIAAVFASIYSMTAVAFDRYMAIIHPLQPRLSATATKVVICVIWVLALLLAFPQGYYSTTETMPSRVVCMIEWPEHPNKIYEKVYHICVTVLIYFLPLLVIGYAYTVVGITLWASEIPGDSSDRYHEQVSAKRKVVKMMIVVVCTFAICWLPFHIFFLLPYINPDLYLKKFIQQVYLAIMWLAMSSTMYNPIIYCCLNDRFRLGFKHAFRCCPFISAGDYEGLEMKSTRYLQTQGSVYKVSRLETTISTVVGAHEEEPEDGPKATPSSLDLTSNCSSRSDSKTMTESFSFSSNVLS
**Q.** For B1, which Kd [1] is on record?
**A.** The Kd was 83 nM.

**Q.** What about the Kd [2] of the same binder?
**A.** Its Kd is 34 nM.
